Laboratory results taken from patent US20070249061A1 (PROTEOGEN, published 2007).
No end group written: not given here.

B1: HGLVHK-NH2 (peptide)
peptide: HGLVHK-NH2
notes: also called HGLVHK peptide; peptide number 7
B2: HHLVHK-NH2 (peptide)
peptide: HHLVHK-NH2
notes: also called peptide number 9
B3: HGDVHK-NH2 (peptide)
peptide: HGDVHK-NH2
notes: also called HGDVHK peptide; peptide number 10
B4: HSDVHK-NH2 (peptide)
peptide: HSDVHK-NH2
notes: also called HSDVHK peptide; peptide number 11
B5: HSLVHK-NH2 (peptide)
peptide: HSLVHK-NH2
notes: also called peptide number 8
B6: HGDLHK-NH2 (peptide)
peptide: HGDLHK-NH2
notes: also called HGDLHK peptide; peptide number 4
B7: HHLLHK-NH2 (peptide)
peptide: HHLLHK-NH2
notes: also called HHLLHK peptide; peptide number 3

Each binder was assayed against T1, integrin αvβ3 (UniProt P06756 31-1048; P05106 27-788) (assay: competitive inhibition of integrin αvβ3-vitronectin interaction on protein chip).
T1 construct: Heterodimer immobilized on ProteoChip
T1 sequence (P06756 31-1048, chain 1 of 2): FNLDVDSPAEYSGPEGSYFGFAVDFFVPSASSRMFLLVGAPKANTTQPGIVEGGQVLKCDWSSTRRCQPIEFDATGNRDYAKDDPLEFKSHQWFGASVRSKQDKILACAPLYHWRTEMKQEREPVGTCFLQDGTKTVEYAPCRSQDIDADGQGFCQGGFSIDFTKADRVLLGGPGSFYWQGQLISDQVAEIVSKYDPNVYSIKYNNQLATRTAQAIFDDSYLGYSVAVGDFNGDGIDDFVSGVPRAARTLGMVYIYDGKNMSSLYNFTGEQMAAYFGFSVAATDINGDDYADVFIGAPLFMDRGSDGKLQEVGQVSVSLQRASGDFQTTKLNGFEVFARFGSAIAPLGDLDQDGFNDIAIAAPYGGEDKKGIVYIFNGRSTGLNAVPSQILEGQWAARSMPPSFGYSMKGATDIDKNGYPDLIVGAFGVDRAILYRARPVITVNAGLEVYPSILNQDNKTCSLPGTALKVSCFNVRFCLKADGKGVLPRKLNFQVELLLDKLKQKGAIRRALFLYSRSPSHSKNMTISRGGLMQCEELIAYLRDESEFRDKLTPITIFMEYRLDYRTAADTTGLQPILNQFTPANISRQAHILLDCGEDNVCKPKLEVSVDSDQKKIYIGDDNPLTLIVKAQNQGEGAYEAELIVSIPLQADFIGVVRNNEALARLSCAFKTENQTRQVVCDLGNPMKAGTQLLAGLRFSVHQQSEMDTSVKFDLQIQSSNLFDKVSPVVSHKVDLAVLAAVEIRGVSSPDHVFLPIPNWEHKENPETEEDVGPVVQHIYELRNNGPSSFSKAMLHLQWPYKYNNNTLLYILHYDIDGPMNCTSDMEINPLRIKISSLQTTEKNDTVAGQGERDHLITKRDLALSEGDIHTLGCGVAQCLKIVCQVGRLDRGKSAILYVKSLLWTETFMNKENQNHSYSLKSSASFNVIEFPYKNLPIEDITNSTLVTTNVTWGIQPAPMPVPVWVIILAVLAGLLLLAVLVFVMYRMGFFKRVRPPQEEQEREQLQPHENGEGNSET
T1 sequence (P05106 27-788, chain 2 of 2): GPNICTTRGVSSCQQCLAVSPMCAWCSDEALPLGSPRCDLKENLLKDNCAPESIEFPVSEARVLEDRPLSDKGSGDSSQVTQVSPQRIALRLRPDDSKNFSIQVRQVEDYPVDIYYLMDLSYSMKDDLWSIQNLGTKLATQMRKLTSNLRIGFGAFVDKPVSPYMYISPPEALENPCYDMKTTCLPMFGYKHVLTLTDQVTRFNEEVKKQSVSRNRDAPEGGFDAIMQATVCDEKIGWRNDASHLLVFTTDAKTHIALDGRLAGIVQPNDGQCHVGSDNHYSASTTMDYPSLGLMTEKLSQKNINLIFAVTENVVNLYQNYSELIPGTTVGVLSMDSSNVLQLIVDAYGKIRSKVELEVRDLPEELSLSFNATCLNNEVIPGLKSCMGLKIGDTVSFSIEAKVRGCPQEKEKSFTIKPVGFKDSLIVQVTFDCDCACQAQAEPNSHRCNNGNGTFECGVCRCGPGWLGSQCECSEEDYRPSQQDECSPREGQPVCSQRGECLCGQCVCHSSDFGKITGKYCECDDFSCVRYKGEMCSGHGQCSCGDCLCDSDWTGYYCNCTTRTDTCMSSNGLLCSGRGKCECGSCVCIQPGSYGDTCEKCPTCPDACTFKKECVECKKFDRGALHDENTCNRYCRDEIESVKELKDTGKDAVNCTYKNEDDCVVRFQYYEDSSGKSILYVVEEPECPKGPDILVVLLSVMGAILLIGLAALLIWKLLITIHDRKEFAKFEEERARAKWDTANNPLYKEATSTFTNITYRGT
Method: After reaction, those were washed for about 10 minutes with 0.5% PBST containing 3% BSA. Competitive inhibitory abilities of antagonists were measured by analyzing the degree of ligand binding as relative fluorescence intensity with a fluorescence scanner.
B1 was tested, and the IC50 was 0.00243 ng/mL. With B2 the IC50 was 0.313 ng/mL. Binder B3 has an IC50 of 0.0447 ng/mL. B4 was tested, and the IC50 was 0.00174 ng/mL. Work on B5 yielded an IC50 of 0.046 ng/mL. Binder B6 has an IC50 of 0.0307 ng/mL. With B7 the IC50 was 0.0034 ng/mL.
